From FireProtDB (doi:10.1021/bi00815a015)
Values joined by “and” are separate entries in the source; they are usually repeats but may differ in a detail not shown here. Identical values can stand only once.

Conditions: Aspergillus oryzae (strain ATCC 42149 / RIB 40), Thermal, DSC, whole UniProt chain shown
[1] = pH 0.36, glycine 0.2 N, HCl, reversible: yes
[2] = pH 1.05, HCl, NaCl 0.2 N, reversible: yes
[3] = pH 2.02, glycine 0.2 N, reversible: yes
[4] = pH 2.8, glycine 0.2 N, reversible: yes
[5] = pH 3.28, glycine 0.2 N, reversible: yes
[6] = pH 4.04, acetate 0.2 N, reversible: no
[7] = pH 5, acetate 0.2 N, reversible: no
[8] = pH 6.23, acetate 0.2 N, reversible: no
[9] = pH 7, None, NaCl 0.2 N, reversible: no
[10] = pH 7.8, None, NaCl 0.2 N, reversible: no

B1: Guanyl-specific ribonuclease T1 wild type, P00651 (protein)
chain: MMYSKLLTLTTLLLPTALALPSLVERACDYTCGSNCYSSSDVSTAQAAGYQLHEDGETVGSNSYPHKYNNYEGFDFSVSSPYYEWPILSSGDVYSGGSPGADRVVFNENNQLAGVITHTGASGNNFVECT
pH 0.36, HCl, reversible: yes
  Tm: 25 °C
  unfolding enthalpy (calorimetric): 48.7 kcal/mol
[1]
  Tm: 31.5 °C
  heat capacity change of unfolding: 1.9 kcal/mol/K
  unfolding enthalpy (calorimetric): 61.2 kcal/mol
  unfolding enthalpy (van 't Hoff): 62 kcal/mol
[2]
  Tm: 25 °C
  unfolding enthalpy (calorimetric): 49.1 kcal/mol
[3]
  Tm: 31.2 °C
  heat capacity change of unfolding: 1.98 kcal/mol/K
  unfolding enthalpy (calorimetric): 65.6 kcal/mol
  unfolding enthalpy (van 't Hoff): 67 kcal/mol
[4]
  heat capacity change of unfolding: 2.11 kcal/mol/K
  unfolding enthalpy (calorimetric): 87.7 kcal/mol and 54.8 kcal/mol
  unfolding enthalpy (van 't Hoff): 68 kcal/mol
[5]
  Tm: 25 °C
  unfolding enthalpy (calorimetric): 63.4 kcal/mol
[6]
  heat capacity change of unfolding: 2.08 kcal/mol/K
  unfolding enthalpy (calorimetric): 126 kcal/mol and 69.2 kcal/mol
  unfolding enthalpy (van 't Hoff): 64 kcal/mol
[7]
  heat capacity change of unfolding: 2.25 kcal/mol/K
  unfolding enthalpy (calorimetric): 151 kcal/mol and 77.2 kcal/mol
  unfolding enthalpy (van 't Hoff): 60 kcal/mol
[8]
  heat capacity change of unfolding: 2.05 kcal/mol/K
  unfolding enthalpy (calorimetric): 156 kcal/mol and 81.2 kcal/mol
  unfolding enthalpy (van 't Hoff): 66 kcal/mol
[9]
  heat capacity change of unfolding: 2.07 kcal/mol/K
  unfolding enthalpy (calorimetric): 168 kcal/mol and 92.9 kcal/mol
  unfolding enthalpy (van 't Hoff): 88 kcal/mol
[10]
  heat capacity change of unfolding: 2 kcal/mol/K
  unfolding enthalpy (calorimetric): 178 kcal/mol and 106 kcal/mol
  unfolding enthalpy (van 't Hoff): 72 kcal/mol
